# Measurements from patent CN115710309A (INST PASTEUR SHANGHAI CAS, dated 2023).
# Experiments:
# Assay in all cases: cell-based or functional assay
# [1] = target: SARS-CoV-2活病毒nCoV-SH01株的S蛋白 (SARS-CoV-2, UniProt P0DTC2 14-1273)
# [2] = target: SARS-CoV-2 S蛋白 (野生型假病毒) (SARS-CoV-2, UniProt P0DTC2 14-1273)
# [3] = target: SARS-CoV-2 S蛋白 (野生型假病毒) (SARS-CoV-2, UniProt P0DTC2 14-1273); remark: listed apart in the source
Binder,活病毒中和 IC50 [1],假病毒中和试验 半数抑制浓度(IC50) [2],假病毒中和试验 半数抑制浓度(IC50) [3]
单抗2G3 (antibody) heavy: QVQLQQPGAELVKPGASVKMSCKASGYTFTTYTIHWLRQTPGQGLEWIGAIYPGIGDTSYNQSFKGKATLTADKSSSTAYMQLSSLTSEDSAVYYCARDGNYAPFTYWGQGTLVTVSAAKTTPPSVYPLAPGSAAQTNSMVTLGCLVKGYFPEPVTVTWNSGSLSSGVHTFPAVLQSDLYTLSSSVTVPSSTWPSETVTCNVAHPASSTKVDKKIVPRDCGCKPCICTVPEVSSVFIFPPKPKDVLTITLTPKVTCVVVDISKDDPEVQFSWFVDDVEVHTAQTQPREEQFNSTFRSVSELPIMHQDWLNGKEFKCRVNSAAFPAPIEKTISKTKGRPKAPQVYTIPPPKEQMAKDKVSLTCMITDFFPEDITVEWQWNGQPAENYKNTQPIMDTDGSYFVYSKLNVQKSNWEAGNTFTCSVLHEGLHNHHTEKSLSHSPGK light: DIVMSQSPSSLAVSVGEKVTMSCKSSQSLLYSNNQKNYLAWYQQKPGQSPKLLIYWTSTRESGVPDRFTGSGSGTDFTLTINSVKAEDLAVYYCQQYYRYPLTVGAGTKLELKRADAAPTVSIFPPSSEQLTSGGASVVCFLNNFYPKDINVKWKIDGSERQNGVLNSWTDQDSKDSTYSMSSTLTLTKDEYERHNSYTCEATHKTSTSPIVKSFNRNEC,0.032 µg/mL,0.007 µg/mL,–
"单抗3A2 (antibody, V domains shown) VH: QVTLKESGPGILQPSQTLSLTCSFSGFSLSTSGMGVSWIRQPSGKGLEWLAHIYWDDDKRYNPSLKSRLTISKDTSSSQVFLKITSVDTVDTATYYCARRGPLITTDGTFDVWGAGTTVTVSS VL: DIVMTQSRKFMSTSVGDRVSITCKASQDVGTSVAWYQQKPGQSPKLLIYWASTRHTGVPDRFTGSGSGTDFTLTINSVQSEDLADYFCQQYSSYPYTFGGGTKLEMK",–,–,0.049 µg/mL
"单抗8D3 (antibody, V domains shown) VH: EVQLQQSGPELVKPGASVKISCKTSGYTFTEYTMYWVKQSHGKSLEWIGGINPNIGDTSYNQNFKGKATLTVDRSSSTAYMELRSLTSEDSAVYYCARDGYPYYYALDHWGQGTSVTVSS VL: DIVMTQSQKFMSTSVGDRVSVTCKASQNVGTNVAWYQQKPGQSPKALIYSTSYRYSGVPDRFTGSGSGTDFTLTISNVQSEDLAEYFCQQYNSYPYTFGGGTKLEIKR",0.071 µg/mL,0.007 µg/mL,–
